Molecular target: T1, recombinant human coronavirus SARS-CoV-2 Spike Glycoprotein RBD, isolate Wuhan-Hu-1 (Abcam), with C-terminal … (SARS-CoV-2, isolate Wuhan-Hu-1, UniProt P0DTC2 319-541)
T1 construct: also called SARS-COV2 spike protein; COVID-19 spike protein
Test: ELISA, RBD coated, anti-c-Myc-HRP detection

Binder | binding result
SARS-CoV-2 VHH-cMYC-12xHis-tag (VH ab8) expressed by E. coli WK6 cells from the pHENC6-VHH plasmid (VHH, also called bacteria-derived VHH antibody; pHENC6-VHH-c-Myc-12xHis-tag) VHH: EVQLVESGGGLVQPGGSLRLSCAASGFTFDDYAMSWVRQAPGKGLEWIGRMYNNGRTSYNPSLKSLVTISRDNSKNTLYLQMNSLRAEDTATYYCARDNLGYRPSENLYGMDVWGQGTTVTVSS | binds
SARS-CoV-2 VHH-cMYC-12xHis-tag (VH ab8) expressed by EXPI293F mammalian cells from pCDNA 3.4 VHH (VHH, also called VHH antibodies obtained in mammalian cells; pCDNA 3.4 VHH-c-Myc-12xHis-tag) VHH: EVQLVESGGGLVQPGGSLRLSCAASGFTFDDYAMSWVRQAPGKGLEWIGRMYNNGRTSYNPSLKSLVTISRDNSKNTLYLQMNSLRAEDTATYYCARDNLGYRPSENLYGMDVWGQGTTVTVSS | binds

Source: patent US20240401070A1 (RUTGERS THE STATE UNIVERSITY OF NEW JERSEY, published 2024)
